B1: I283T-P284D-N287P-S322T-N388M-C430N-L432F-L434W-S436T-A463G-Y469D (protein)
chain: MFLKSLREQINLLKRQGDLRIINRPVDSYLEAAAIIRRSTETKAPVPLMTNIKGYPGCSIVGGLAALSSNPEYPLSRVAMSLGLSTTASAQSIVQYLIDGLKKTPYLPVEIDSNSAPCKQNILRGEDASLAHFPIPQVHQHDGNRYVNTWGVFIVESPDGQWCNWSIQRVQYLNDRQMIALVFPSQHISDIWEEWVKIGKPMPYALVQGCEPIVPYIAGLPLLERNVNEAEYIGALYGKGIEVVKCETHDLRVPASSEVVIEGYFAITREGVEGPFGEFAGYTDNEPSLQPILSITAISWQDDPIWPVVAEGKPVDEYHTCTGIGDAAAIQNVLLTANLPVSFVWVPLYSACHLMIVSINRHWRQTHPDLTSEQLTKKVGDVIHQTRMSIKLPKIVVLDDDVDPADTESLLWALATRIHPERKRYFYESNIFPWLTCYSEEERHNRKGKRVIIDALLPENHGGISSFDDAYPDDIKQRVLMHWETDFSHD
B2: I283T-P284D-N287P-S322T-N388M-S429A-C430N-L432F-L434W-S436N-A463G-Y469D (protein)
chain: B1 chain with S429A, T436N
B3: I283L-N285M-N287T-S322T-A337T-N388M-K394R-C430N-L432F-L434W-S436N-dG462 (protein)
chain: B1 chain with T283L, D284P, N285M, P287T, A337T, K394R, T436N, G463A, D469Y
B4: I283T-P284D-N287P-S322T-N388M-P393A-C430N-L432F-L434W-S436N-A463G-Y469D (protein)
chain: B1 chain with P393A, T436N
B5: N285M-N287T-S322T-N388M-K394R-C430N-L432F-L434W-S436N-dG462-A463F (protein)
chain: B1 chain with T283I, D284P, N285M, P287T, K394R, T436N, G463F, D469Y
B6: N388Q-C430P-L432F-L434W-S436N (protein)
chain: B1 chain with T283I, D284P, P287N, T322S, M388Q, N430P, T436N, G463A, D469Y
B7: S185T-N388M-C430P-L432F-L434W-S436N (protein)
chain: B1 chain with S185T, T283I, D284P, P287N, T322S, N430P, T436N, G463A, D469Y
B8: I283F-P284D-N287P-S322T-N388M-C430N-L432F-L434W-S436N-A463G-Y469D (protein)
chain: B1 chain with T283F, T436N
B9: I283T-P284D-N287P-S322T-H384A-N388M-C430N-L432F-L434W-S436N-A463G-Y469D (protein)
chain: B1 chain with H384A, T436N
B10: I283T-P284D-N287P-S288T-S322T-N388M-C430N-L432F-L434W-S436N-A463G-Y469D (protein)
chain: B1 chain with S288T, T436N
B11: I283T-P284D-N287P-S322T-N388M-C430N-L432F-L434W-S436N-H444R-A463G-Y469D (protein)
chain: B1 chain with T436N, H444R
B12: I283T-P284D-N287P-S322T-N388M-C430N-L432F-L434W-S436N-A463F-Y469D (protein)
chain: B1 chain with T436N, G463F
B13: I283T-P284D-N287P-S322T-H384T-N388M-C430N-L432F-L434W-S436N-A463G-Y469D (protein)
chain: B1 chain with H384T, T436N
B14: I283T-P284D-N287P-S322T-N388M-i421aG-C430N-L432F-L434W-S436N-A463G-Y469D (protein)
chain: B1 chain with T436N
B15: N285M-N287T-S322T-N388M-K394R-C430N-L432F-L434W-S436N-dG462-Y469T (protein)
chain: B1 chain with T283I, D284P, N285M, P287T, K394R, T436N, G463A, D469T
B16: N285M-N287T-S322T-N388M-K394R-C430N-L432F-L434W-S436N-N460G-dG462 (protein)
chain: B1 chain with T283I, D284P, N285M, P287T, K394R, T436N, N460G, G463A, D469Y
B17: I283T-P284D-N287P-S322T-N388M-E421V-C430N-L432F-L434W-S436N-A463G-Y469D (protein)
chain: B1 chain with E421V, T436N
B18: N285M-N287T-S322T-N388M-K394R-C430N-L432F-L434W-S436N-dG462-A463V (protein)
chain: B1 chain with T283I, D284P, N285M, P287T, K394R, T436N, G463V, D469Y
B19: I283T-P284D-N287P-S322T-N388M-C430N-L432F-L434W-S436N-A463G-Y469T (protein)
chain: B1 chain with T436N, D469T
B20: I283T-P284D-N287P-S322T-N388M-C430N-L432F-L434W-S436N-E459P-A463G-Y469D (protein)
chain: B1 chain with T436N, E459P
B21: N285M-N287T-S322T-N388M-K394R-C430N-L432F-L434W-S436N-dG462-A463M (protein)
chain: B1 chain with T283I, D284P, N285M, P287T, K394R, T436N, G463M, D469Y
B22: I283T-P284D-N287P-S322T-N388M-R422V-C430N-L432F-L434W-S436N-A463G-Y469D (protein)
chain: B1 chain with R422V, T436N
B23: N285M-N287T-S322T-N388M-K394R-C430N-L432F-L434W-S436N-dG462-Y469S (protein)
chain: B1 chain with T283I, D284P, N285M, P287T, K394R, T436N, G463A, D469S
B24: I283T-P284D-N287P-S322T-N388M-E421T-C430N-L432F-L434W-S436N-A463G-Y469D (protein)
chain: B1 chain with E421T, T436N
B25: I283T-P284D-N287P-S322T-N388M-R422F-C430N-L432F-L434W-S436N-A463G-Y469D (protein)
chain: B1 chain with R422F, T436N
B26: P284E-N287Q-S322T-N388M-K394R-C430N-L432F-L434W-S436N-dG462-Y469D (protein)
chain: B1 chain with T283I, D284E, P287Q, K394R, T436N, G463A
B27: I283T-P284D-N287P-S322T-N388M-R422Q-C430N-L432F-L434W-S436N-A463G-Y469D (protein)
chain: B1 chain with R422Q, T436N
B28: P284E-N287Q-S322T-N388M-K394R-C430N-L432F-L434W-S436N-dG462-Y469S (protein)
chain: B1 chain with T283I, D284E, P287Q, K394R, T436N, G463A, D469S
B29: I283F-P284E-N287Q-S322T-N388M-K394R-C430N-L432F-L434W-S436N-dG462 (protein)
chain: B1 chain with T283F, D284E, P287Q, K394R, T436N, G463A, D469Y
B30: N388M-K394H-C430S-L432F-L434W-S436N (protein)
chain: B1 chain with T283I, D284P, P287N, T322S, K394H, N430S, T436N, G463A, D469Y
B31: I283S-P284D-N287P-S322T-N388M-C430N-L432F-L434W-S436N-A463G-Y469D (protein)
chain: B1 chain with T283S, T436N
B32: I283T-P284D-N287P-S322T-N388M-C430N-L432F-L434W-S436N-G462P-A463G-Y469D (protein)
chain: B1 chain with T436N, G462P
B33: I283T-P284D-E286C-N287P-S322T-N388M-C430N-L432F-L434W-S436N-A463G-Y469D (protein)
chain: B1 chain with E286C, T436N

Changes are numbered by the printed parent chain. In names and notes the source's numbering stands.

The test system of the assay is 3-methylcrotonic acid. Type of assay: biochemical, Yersinia frederiksenii. More on the design: key: “+” representing a low increase in activity; “++++” representing a high increase in activity.
B1: the “Activity relative to WT” value is recorded as “++++”.
B2: the “Activity relative to WT” value is listed as “++++”.
Regarding B3, the “Activity relative to WT” value is listed as “++++”.
In the case of B4, the “Activity relative to WT” value was “++++”.
With B5 the entry was “++++”; with B6, “+”; with B7, “+”.
In the case of B8, the “Activity relative to WT” value is listed as “++++”.
As to B9, the “Activity relative to WT” value was “++++”.
For B10, the “Activity relative to WT” value is on record as “++++”.
As for B11, the “Activity relative to WT” value was “++++”.
For the molecule B12, the “Activity relative to WT” value is reported as “++++”.
On to B13, for which the “Activity relative to WT” value is reported as “++++”.
Turning to B14, the “Activity relative to WT” value is listed as “++++”.
Turning to B15, the “Activity relative to WT” value was “++++”.
Next, B16: “++++”.
In the case of B17, the “Activity relative to WT” value is listed as “++++”.
As to B18, the “Activity relative to WT” value is “++++”.
As to B19, the “Activity relative to WT” value is listed as “++++”.
With B20, the “Activity relative to WT” value is “++++”.
As to B21, the “Activity relative to WT” value is “++++”.
Turning to B22, the “Activity relative to WT” value is reported as “++++”.
As to B23, the “Activity relative to WT” value was “++++”.
With B24, the “Activity relative to WT” value is recorded as “++++”.
With B25, the “Activity relative to WT” value is “++++”.
For B26, the “Activity relative to WT” value is “++++”.
Turning to B27, the “Activity relative to WT” value is reported as “++++”.
As for B28, the “Activity relative to WT” value is recorded as “++++”.
For the molecule B29, the “Activity relative to WT” value is reported as “++++”.
Regarding B30, the “Activity relative to WT” value is reported as “+”.
With B31 the entry was “++++”; with B32, “++++”; with B33, “++++”.

For the origin of these results see US20250327097A1, “ORGANISMS PRODUCING LESS CROTONIC ACID” (Global Bioenergies, priority 2021, published 2025).
